Results taken from patent US11021755B2, “Compositions and methods for identifying anti cancer, anti-metastatic and anti-stress agents” (THE REGENTS OF THE UNIVERSITY OF CALIFORNIA, priority 2015, dated 2021).
Peptide text beside a SMILES is read from it. * marks the point of attachment. Cbz = O=C(OCc1ccccc1)*

What was measured:
[1] = system: β3 expression in MaSCs/basal cells; experiment: β3 expression in K14+SMA+ cells from virgin WT mammary cells stimulated with growth factors (immunofluorescence); type: cell-based, mouse; conditions: cells from virgin WT mice; relative to vehicle-treated cells; TGF-b2 5 ng/ml, TGF-b1 5 ng/ml, RANKL 50 ng/ml, 48 hr
Text: (§1) To examine the ability of these factors to increase β3 expression, we stimulated cells from virgin WT mice and measured β3 expression in MaSCs/basal cells, defined by expression of K14 and SMA.
FIG. 20A illustrates representative immunofluorescent images of β3 expression in K14+SMA+ cells (arrows) from pooled virgin WT mammary cells stimulated with the indicated growth factors. Nuclei are stained blue in all panels. Scale bars, […]. Data shown are representative of three independent experiments.
(§2) Cells from digested mammary glands were seeded at 40,000 cells per well onto MEFs (for colony-formation assays) or 8-well chamber slides (Lab-Tek) coated with 2% Matrigel/DMEM. At the time of seeding, cells were suspended in complete DMEM supplemented with vehicle (0.1% BSA/PBS), RANKL (50 ng/ml), TGF-b1 (5 ng/ml), or TGF-b2 (5 ng/ml) (PeproTech). Cells were fixed with 2% paraformaldehyde/PBS after 48 hr (chamber slides) or 5 days (colonies) for immunofluorescent staining.

[2] = system: MaSC/basal and luminal colonies from virgin mammary cells; experiment: Mammary colony formation on irradiated MEFs with growth factors; type: cell-based, mouse; conditions: for total colony number: virgin mammary cells on irradiated MEFs
Description: This effect was reduced in mammary cells from β3KO mice (FIG. 20H), similar to our results from pregnant b3KO mice (FIG. 19C).
For colony formation on irradiated MEFs, 100,000 MEFs were seeded into 6-well dishes for 48 hr prior to adding 40,000 cells from digested mammary glands and grown in complete Dulbecco's modified Eagle's medium (DMEM). Colonies formed over 5-6 days before fixing and staining with either 0.1% crystal violet/20% methanol/PBS or 2% paraformaldehyde/PBS for immunofluorescent staining and counting colonies. For Matrigel colonies, 5,000 fluorescence-activated cell sorting (FACS) mammary gland cells were suspended in […] growth factor-reduced Matrigel (BD PharMingen) and grown 14 days in serum-free mammary epithelial cell medium-basal medium (Cambrex) supplemented with B27 supplement, 20 ng/ml epidermal growth factor, 20 ng/ml […] fibroblast growth factor, […], 100 U/ml penicillin, and […] streptomycin. Total colonies per well were counted from each of the four replicates per experiment.
as §2

[3] = system: ITGB3 promoter in HCC827 cells; conditions: resuming erlotinib treatment after erlotinib holiday
[4] = system: Slug protein and pY416 SFK in MCF10A cells; experiment: Immunoblots of MCF10A cells stimulated with TGF-b2 and treated with inhibitors or antibody; type: cell-based, human; conditions: for Slug protein levels: 10 mM MG132, 5 hr prior to lysis
Description: FIGS. 21F-G illustrate Immunoblots of MCF10A cells stimulated with TGF-b2 or vehicle control and probed for the indicated proteins. FIG. 21F: Cells were transfected with control (Ctrl) or b3 siRNA and additionally treated with vehicle or proteasome inhibitor (MG132) for 5 hr prior to lysis. FIG. 21G: Cells were treated with 100 nM Src inhibitor (dasatinib) for the indicated length of time prior to lysis. FIG. 21F and FIG. 21G: Data shown are representative of three independent experiments.
Indeed, Slug protein levels are highly regulated through degradation by the proteasome (Kim et al. 2012; Wu et al., 2012). […] Thus, it appears that TGF-β2-stimulated expression of a αvβ3 mediates SFK activation resulting in enhanced Slug protein stability.
(§3) For experiments with MCF10A and HMECs, TGF-b2 stimulations were performed with 5 ng/ml TGF-b2 (PeproTech) or 0.1% BSA/PBS (vehicle) for 48 hr prior to lysis. In some experiments, […] of the anti-αvβ3 function-blocking antibody LM609 (Millipore) was added to cells at the same time as TGF-b2 or vehicle addition. For the proteasome inhibitor experiments, 10 mM MG132 (Sigma-Aldrich) or DMSO (vehicle) was added to transfected MCF10A cells 5 hr prior to lysis. Treatment of MCF10A cells with the SFK inhibitor dasatinib (ChemieTek) or DMSO (vehicle) was performed with 100 nM dasatinib for the indicated times prior to harvesting lysates.

[5] = system: β3 promoter; experiment: β3 promoter luciferase reporter in MCF10A cells; type: cell-based, human; conditions: reporter with proximal 1,300 bp of the β3 promoter
Text: FIG. 20E graphically illustrates a Histogram displaying the relative luciferase activity in MCF10A cells transfected with an empty vector (Ctrl) or a luciferase reporter plasmid containing the proximal region of the β3 promoter (β3 prom-Luc) and stimulated with vehicle or TGF-β2. n=3 independent experiments. p=0.043.

[6] = system: β3 mRNA in CD29hi MaSCs/basal cells and CD29lo luminal cells; experiment: qPCR of β3 mRNA in vehicle versus TGF-β2-stimulated CD29hi and CD29lo cells; type: cell-based, mouse
Text: as §1
FIG. 20B and FIG. 20C graphically illustrate qPCR analysis comparing the relative levels of β3 mRNA in vehicle versus TGF-β2-stimulated CD29hi (FIG. 20B) and CD29lo (FIG. 20C) cells from WT virgin mice. n=2 independent experiments (pooled samples).
For FIG. 20B, FIG. 20C, and FIG. 20F: each sample was run in triplicate, and 18S rRNA (FIG. 20B and FIG. 20C) or b-actin (FIG. 20F) was used as loading controls.

[7] = system: β3 expression in human mammary epithelial cells (HMECs), MCF10As; experiment: Immunoblot for β3 in MCF10As and HMECs stimulated with TGF-b2; type: cell-based; conditions: HMECs including MCF10As; 5 ng/ml TGF-b2, 48 hr
Description: FIG. 20D illustrates an image of an Immunoblot for β3 and b-actin (loading control) in MCF10As and HMECs stimulated with TGF-b2 or vehicle control. Data shown are representative of three independent experiments.
as §3

[8] = system: nuclear Slug in K14+SMA+ MaSCs/basal cells; experiment: Slug expression in K14+SMA+ mammary cells stimulated with TGF-β2; type: cell-based, mouse
Text: Slug was recently characterized as a determinant of the MaSC fate in the virgin mammary gland (Guo et al., 2012) and is expressed during early to midpregnancy but is negatively regulated by Elf5 during late stage pregnancy/lactation, allowing for alveolar maturation (Chakrabarti et al., 2012). Therefore, we considered whether β3 was required for TGF-β2-mediated Slug expression in MaSCs/basal cells.
To determine the potential mechanism by which αvβ3 regulates Slug, we considered whether αvβ3 signaling may be required by assessing whether the b3DC mutant affects Slug expression. […] The β3DC mutant has previously been characterized as defective in recruiting and activating Src family kinases (SFKs) (Ablooglu et al., 2009; Arias-Salgado et al., 2003; Desgrosellier et al., 2009).
FIG. 21B graphically illustrates quantitation of the percentage of Slug+K14+SMA+ cells. p=0.0439 (vehicle versus TGF-b2 inWT cells) and p=0.0342 (WT versus b3KO cells stimulated with TGF-b2). For FIG. 21A and FIG. 21B: WT, n=3, b3KO, n=3.
FIG. 21E graphically illustrates quantitation of the percentage of Slug-expressing K14+SMA+ cells from virgin WT and b3DC mammary cells stimulated with vehicle or TGF-b2. WT, n=2, b3DC, n=2. p=0.029 (vehicle versus TGF-b2 in WT cells) and p=0.032 (WT versus b3DC cells stimulated with TGF-b2).
as §2

[9] = virgin WT mammary cells on irradiated MEFs, compared to vehicle

TGF-β1: transforming growth factor β (TGF-β) family member (PeproTech)
β3 expression in MaSCs/basal cells (K14 and SMA expressing) [1]: not | total colony number [2]: severe growth inhibitory effect

C#Cc1cccc(Nc2ncnc3cc(OCCOC)c(OCCOC)cc23)c1 [erlotinib]
expression of β3 and stem cell genes OCT4 and Nanog [3]: re-expression

CC(C)C[C@@H](C=O)NC(=O)[C@H](CC(C)C)NC(=O)[C@H](CC(C)C)NC(=O)OCc1ccccc1 [MG132] (Cbz-Leu-Leu-Leu-aldehyde)
Slug protein levels ([4]; b3 knockdown MCF10A cells): restore Slug protein levels to normal | Slug protein levels ([4]; control MCF10A cells): little effect

B1: RANKL: receptor activator of nuclear factor kB ligand (protein, UniProt O14788 140-317, looked up)
Tumor necrosis factor ligand …: IRAEKAMVDGSWLDLAKRSKLEAQPFAHLTINATDIPSGSHKVSLSSWYHDRGWAKISNMTFSNGKLIVNQDGFYYLYANICFRHHETSGDLATEYLQLMVYVTKTSIKIPSSHTLMKGGSTKYWSGNSEFHFYSINVGGFFKLRSGEEISIEVSNPSLLDPDQDATYFGAFKVRDID
β3 expression in MaSCs/basal cells (K14 and SMA expressing) [1]: not | total colony number [2]: potent driver of colony formation

B2: TGF-β2: Transforming growth factor β2, growth factor released during pregnancy (PeproTech) (protein, UniProt P61812 303-414, looked up)
Transforming growth factor …: ALDAAYCFRNVQDNCCLRPLYIDFKRDLGWKWIHEPKGYNANFCAGACPYLWSSDTQHSRVLSLYNTINPEASASPCCVSQDLEPLTILYYIGKTPKIEQLSNMIVKSCKCS
β3 expression in MaSCs/basal cells (K14 and SMA expressing) [1]: stimulated β3 expression | β3 promoter activity (relative luciferase activity) [5]: directly activating the β3 promoter | frequency of bipotent, MaSC-like colonies [2, 9]: increased | luminal colonies [2, 9]: reciprocal decrease | total colony number [2]: did not affect | expression of EMT markers such as Slug, E-cadherin, and Vimentin ([4]; MCF10A cells, TGF-β2 stimulation): drives changes | β3 mRNA expression ([6]; CD29hi MaSCs/basal cells from WT virgin mice): drive β3 mRNA expression | β3 mRNA expression ([6]; CD29lo luminal cells from the same mice): little effect | β3 expression (immunoblot) [7]: potent driver | Slug expression in K14+SMA+ cells ([8]; cells from β3DC knockin mice): no increase | nuclear Slug expression in K14+SMA+ cells ([8]; virgin WT mammary cells, compared to vehicle control): induced nuclear Slug expression | Slug expression in K14+SMA+ cells ([8]; β3KO cells): failed to increase Slug
